Assay results as given in the RNAGym collection of RNA variant scans (doi:10.1073/pnas.2313332121).
This sample holds only a part of the variants without activity.

B1: TPR 5TU (parent)
chain: GGAUCUUCUCGAUCUAACAAAAAAGACAAAUCUGCCACAAAGCUUGAGAGCAUCUUCGGAUGCAGAGGCGGCAGCCUUCGGUGGCGCGAUAGCGCCAACGUUCUCAACUAUGACACGCAAAACGCGUGCUCCGUUGAAUGGAGUUUAUCAUG

Variants of: B1
Assay: polymerase ribozyme fitness, log enrichment relative to wild type (log ratio); higher = more active; in vitro selection for triplet polymerase activity
Method in brief: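 A single round of triplicate in vitro selection, including frozen incubation at −7 °C, was applied to PCR-built, transcribed mutant libraries of each subunit of a heterodimeric triplet polymerase ribozyme. Illumina sequencing of input and output libraries retained genotypes with ≥10 input reads and ≥1 read per output. Fitness is the base-2 logarithm of genotype enrichment divided by wild-type enrichment, from inverse-variance-weighted replicate averages.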

| Variant | polymerase ribozyme fitness (log ratio) |
| --- | --- |
| A64G G86U | ≤ -4.2 |
| U55A C57A A60G A73U C132U U145G | -2.26 |
| C43U U61A G86U A142G A147U | ≤ -4.2 |
| G34U C51U G59U G88A G141U A142G U146G A147U | ≤ -4.2 |
| U31C G34U A52U U56A A60G G84A G92A C95G C105A A110C G133C U148A | ≤ -4.2 |
| C36U G62A C72U | -3.23 |
| C10U A12C C54A C85U C108U | ≤ -4.2 |
| G50C U56A | -2.92 |
| A16U A52G U104G U134G | ≤ -4.2 |
| A26U A40C G68C G71U U82A A119C C125A A150C | ≤ -4.2 |
| A17G U44A A91G | ≤ -4.2 |
| U13C U61G G84A A91G | -3.86 |
| U4A C5G A22U G25U A30U C63U A66C G143U | ≤ -4.2 |
| A29U A66U C79A G83A C96A A142U | ≤ -4.2 |
| U4A A37C U61A A66G G133U U144A | ≤ -4.2 |
| C5G U6C G50A | -2.74 |
| A19C A20C A40G U55C G71U G84A A138U U139A | ≤ -4.2 |
| A106G C116U U148C | -1.25 |
| U4G A19U C43U C87U A98G | ≤ -4.2 |
| C35U U101G A110U A138G | ≤ -4.2 |
| U6G C75U | 0.374 |

| Variant | polymerase ribozyme fitness (log ratio) |
| --- | --- |
| A41U C87U A137U G143U | ≤ -4.2 |
| A12U U15C A49C G88C C123U G143C | ≤ -4.2 |
| C85G A121G C132U | -2.88 |
| U55A U61A A97C C103A C125A | ≤ -4.2 |
| A73U G83C G143C | ≤ -4.2 |
| A12G C27U A40U A73G C87G C95A G124U G136A | ≤ -4.2 |
| A26U G94C | -2.1 |
| U4A C85U | -1.53 |
| U9G C10A C43U C57G C99A | ≤ -4.2 |
| A19C A37U G70U U144C | ≤ -4.2 |
| G50C C93U | -4.15 |
| A20U A28U A39U G83A G141A | -4.1 |
| A21U G71C C79G A107U A142C | ≤ -4.2 |
| A37U A142G G152U | -4.13 |
| U4G A24G A47C C51A C54A C76G U82G G86U A115G | ≤ -4.2 |
| C96U G117U A120U C149A | ≤ -4.2 |
| C51G G84A C95G A119G | -2.85 |
| C18G U56A | -0.693 |
| A73U C79U G88A A119G G124U C149A | ≤ -4.2 |
| U45C A49C G70C G83C A137C U144C | ≤ -4.2 |
| C36A G46A C96U U148A | ≤ -4.2 |

| Variant | polymerase ribozyme fitness (log ratio) |
| --- | --- |
| A49G U139A | -4.08 |
| C85A G94A | -1.74 |
| G11C G62A C87G | ≤ -4.2 |
| A12C A23G U31C U55A | ≤ -4.2 |
| A22U G86C | -3.34 |
| C96U C149U | -0.874 |
| G11A A17C A49C C85U A91U G136U | ≤ -4.2 |
| U9C C10U A16U A19C C85G G94C C105U A106U | ≤ -4.2 |
| G50A G65A A89U U101A A106C | -4.2 |
| G68C A91C A106U U127A | ≤ -4.2 |
| A16C A17G C96G C118U | -1.74 |
| C93U U102G G117U U135A | ≤ -4.2 |
| C76U G84U G143A | -2.57 |
| C57A G83C G141A | -0.777 |
| A49U G50C G65C A97U U101G C129G G143U | ≤ -4.2 |
| A3U C5G C18U U31A C76U G94U | -1.46 |
| C14G C87G A107G | ≤ -4.2 |
| A17U A24U A39G C63G | -4.15 |
| U55C U56A A98U U145A | -1.11 |
| C8G A20C G67C G68C A113U | ≤ -4.2 |
| C18U G94A | -1.37 |

| Variant | polymerase ribozyme fitness (log ratio) |
| --- | --- |
| A26C U45G C63U C75U G80C G112C U144G | ≤ -4.2 |
| G46A G68C G83C A147U | ≤ -4.2 |
| A17U C129G | -2.62 |
| A37C U55A C96U A113U A137U | -4.18 |
| A19G A97U | -0.98 |
| A64G G83U C118A A138G | ≤ -4.2 |
| A22C A52C G81U | -1.38 |
| A17U A22U C51U U55A C75A C85U U101A C114U A115G G124A | ≤ -4.2 |
| U102G U104C | ≤ -4.2 |
| U7C U56A G94A A98G | -3.41 |
| A19G A47G G48A | -3.23 |
| U55A A66U G74A C75A C79G G88C C95G A137U | ≤ -4.2 |
| U55A U61A A91U A97C A142G | ≤ -4.2 |
| A20G G59A | -0.551 |
| G48C C63U C69U G74A C93A U102G A107G | ≤ -4.2 |
| G25C A150C | -3.47 |
| G81C G84U G126C | -2.04 |
| C5U U7A G88U U148C A150C | ≤ -4.2 |
| G68A C85U A97U A107U G128A C132U | ≤ -4.2 |
| A73G A107U | -4.1 |
| A19U A21U G86A C103U | -2.31 |
